Results reported in PMC4526660.
“And” between values parts separate entries of the source, which are not always exact repeats. Equal values may be shown once. Read-outs that look alike come from different tables or passages of the source.

Tests used:
[1] = target: Phosphatase and tensin homolog deleted on chromosome 10 (PTEN) (African green monkey (endogenous in Vero)); test: co-IP; immunoprecipitation with PTEN, Rak or β-arrestin antibodies from Vero cells, mock, ARV-infected or p17-transfected, also with Rak shRNA, Rock-1 shRNA, Y-27632 or TBB; 500 ug cellular proteins with 4 ug antibody at 4°C overnight; Western blot; amounts normalized to mock controls
[2] = target: Phosphatase and tensin homolog deleted on chromosome 10 (PTEN) (African green monkey (endogenous in Vero)); test: as above; remark: listed apart in the source

Rak, sequence (P42685 whole entry): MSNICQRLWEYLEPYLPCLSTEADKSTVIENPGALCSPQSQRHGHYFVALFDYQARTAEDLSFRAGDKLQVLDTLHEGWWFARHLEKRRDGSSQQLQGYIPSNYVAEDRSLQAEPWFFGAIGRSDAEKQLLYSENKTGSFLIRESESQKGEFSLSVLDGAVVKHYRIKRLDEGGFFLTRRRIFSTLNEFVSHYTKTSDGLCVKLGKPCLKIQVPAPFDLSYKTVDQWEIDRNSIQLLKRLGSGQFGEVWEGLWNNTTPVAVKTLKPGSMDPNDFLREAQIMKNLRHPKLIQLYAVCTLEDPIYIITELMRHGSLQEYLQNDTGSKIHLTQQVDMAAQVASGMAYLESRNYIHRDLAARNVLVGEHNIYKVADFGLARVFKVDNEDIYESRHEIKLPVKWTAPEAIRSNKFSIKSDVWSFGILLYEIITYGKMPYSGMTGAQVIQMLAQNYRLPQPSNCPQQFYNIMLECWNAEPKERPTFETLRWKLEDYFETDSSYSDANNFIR

E3 ligase NEDD4-1 (natural protein)
other [1]: 2.8 fold and 3.1 fold
other [2]: 2.35 fold and 2.45 fold

Rak (from UniProt P42685-1 1-505) (natural protein)
fold increase of Rak-PTEN association against mock, ARV-infected cells [1]: 3.8 fold
fold increase of Rak-PTEN association against mock, p17-transfected cells [1]: 4.5 fold

β-arrestin (natural protein)
fold increase of β-arrestin-PTEN association against mock, ARV-infected cells [1]: 3.5 fold
fold increase of β-arrestin-PTEN association against mock, p17-transfected cells [1]: 6 fold
